Test results published in patent publication US20150265516A1 (Merck KGaA, published 2015).
Starred links: 1 amine or outer side, 2 acyl side, 3 side chain; linkers in the order of their positions; H or OH if unused. Non-standard residues stand in square brackets, D forms with d. Primed or numbered codes have the meaning given here. No end group written: not given here. Nhdg = N-hexadecylglycine, CCCCCCCCCCCCCCCCN(CC(=O)[*:2])[*:1]; Aib′ = 3-aminoisobutyric acid (as defined by the filing); Ac6c = NC1(C(=O)O)CCCCC1; NMeA = CN[C@@H](C)C(=O)O; Ac5c = NC1(C(=O)O)CCCC1

B1: Cyclo-(Arg-Gly-Asp-Phe-Nhdg) (peptide)
peptide: cyclo(RGDF[Nhdg])
SMILES: CCCCCCCCCCCCCCCCN1CC(=O)N[C@@H](CCCNC(=N)N)C(=O)NCC(=O)N[C@@H](CC(=O)O)C(=O)N[C@@H](Cc2ccccc2)C1=O
notes: Phe at 4 is printed without D; residue 5 is glycine carrying an N-hexadecyl group
B2: Cyclo-(Arg-Ala-Asp-DPhe-Val) (peptide)
peptide: cyclo(RAD[dF]V)
SMILES: CC(C)[C@@H]1NC(=O)[C@@H](Cc2ccccc2)NC(=O)[C@H](CC(=O)O)NC(=O)[C@H](C)NC(=O)[C@H](CCCNC(=N)N)NC1=O
notes: also called cyclo(RADfV)
B3: Cyclo-(Arg-Gly-Asp-DPhe-Acha) (peptide)
peptide: cyclo(RGD[dF][Ac6c])
SMILES: N=C(N)NCCC[C@@H]1NC(=O)C2(CCCCC2)NC(=O)[C@@H](Cc2ccccc2)NC(=O)[C@H](CC(=O)O)NC(=O)CNC1=O
notes: X = non-natural residue Acha; also called CPPC 1; Cyclopeptide
B4: Cyclo-(Arg-Gly-Asp-DPhe-(NMe)Ala) (peptide)
peptide: cyclo(RGD[dF][NMeA])
SMILES: C[C@H]1C(=O)N[C@@H](CCCNC(=N)N)C(=O)NCC(=O)N[C@@H](CC(=O)O)C(=O)N[C@H](Cc2ccccc2)C(=O)N1C
B5: Gly-Arg-Gly-Asp-Ser-Pro-Lys-OH (peptide)
peptide: GRGDSPK-OH
notes: Linear peptide with free C-terminus; also called GRGDSPK peptide

Legend:
[1] = biological target: T1, purified human integrin αvβ3 from term placenta (human, UniProt P06756 31-1048; P05106 27-788); test: receptor inhibition assay: coated placental αvβ3, competitor ligand biotinylated vitronectin
T1 construct: mature; also called human placental αvβ3; vitronectin receptor avβ3
Method: Method: 1 μg ml⁻¹ biotin-ligand is incubated with 1 μg ml⁻¹ coated receptor in the presence of serially diluted peptides. After 3 h at 30° C. bound ligand was measures by anti-biotin—alkaline phosphatase detection.

[2] = biological target: T1, purified human integrin αvβ3 from term …; test: solid-phase inhibition assay: immobilized placental αvβ3, competitor ligand vitronectin
[3] = biological target: T2, recombinant human integrin αvβ3 (human, UniProt P06756 31-992; P05106 27-718); test: isolated integrin binding assay: adsorbed recombinant human αvβ3, competitor ligand biotinylated human plasma vitronectin
T2 construct: also called recombinant human αvβ3 integrin; avβ3
Method: After 3 hours at 37° C., bound ligand is detected using alkaline-phosphatase labelled anti-biotin MAbs (Sigma, St. Louis, Mo.).

[4] = biological target: T2, recombinant human integrin αvβ3; test: ligand inhibition ELISA: immobilized recombinant human αvβ3, competitor ligand biotinylated human serum vitronectin

T1 sequence (P06756 31-1048, form in doubt, chain 1 of 2): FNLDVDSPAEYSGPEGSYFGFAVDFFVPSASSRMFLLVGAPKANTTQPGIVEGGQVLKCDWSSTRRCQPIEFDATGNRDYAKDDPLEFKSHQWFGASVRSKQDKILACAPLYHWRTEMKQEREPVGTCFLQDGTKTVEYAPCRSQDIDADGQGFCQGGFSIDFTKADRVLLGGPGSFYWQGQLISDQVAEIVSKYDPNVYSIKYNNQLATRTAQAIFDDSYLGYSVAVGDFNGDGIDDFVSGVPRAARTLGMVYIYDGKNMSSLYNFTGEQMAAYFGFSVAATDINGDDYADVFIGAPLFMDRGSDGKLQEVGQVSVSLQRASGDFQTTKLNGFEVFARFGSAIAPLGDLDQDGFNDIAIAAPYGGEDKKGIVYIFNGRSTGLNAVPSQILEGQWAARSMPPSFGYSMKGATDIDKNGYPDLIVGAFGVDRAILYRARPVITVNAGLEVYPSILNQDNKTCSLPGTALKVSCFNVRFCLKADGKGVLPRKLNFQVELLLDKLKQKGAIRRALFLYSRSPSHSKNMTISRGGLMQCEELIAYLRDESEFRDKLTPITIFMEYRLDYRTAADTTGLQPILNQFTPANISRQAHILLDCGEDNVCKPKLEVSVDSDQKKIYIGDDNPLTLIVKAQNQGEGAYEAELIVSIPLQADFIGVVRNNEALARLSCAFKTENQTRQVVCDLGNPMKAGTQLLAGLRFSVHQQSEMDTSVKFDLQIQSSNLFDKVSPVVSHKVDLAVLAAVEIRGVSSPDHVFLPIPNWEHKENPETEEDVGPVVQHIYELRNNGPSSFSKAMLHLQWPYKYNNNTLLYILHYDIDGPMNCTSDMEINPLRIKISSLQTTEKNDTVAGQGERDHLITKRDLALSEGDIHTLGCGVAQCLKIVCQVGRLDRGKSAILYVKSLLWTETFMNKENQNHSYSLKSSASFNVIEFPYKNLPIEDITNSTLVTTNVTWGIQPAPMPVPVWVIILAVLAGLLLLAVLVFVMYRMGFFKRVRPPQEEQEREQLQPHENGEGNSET
T1 sequence (P05106 27-788, form in doubt, chain 2 of 2): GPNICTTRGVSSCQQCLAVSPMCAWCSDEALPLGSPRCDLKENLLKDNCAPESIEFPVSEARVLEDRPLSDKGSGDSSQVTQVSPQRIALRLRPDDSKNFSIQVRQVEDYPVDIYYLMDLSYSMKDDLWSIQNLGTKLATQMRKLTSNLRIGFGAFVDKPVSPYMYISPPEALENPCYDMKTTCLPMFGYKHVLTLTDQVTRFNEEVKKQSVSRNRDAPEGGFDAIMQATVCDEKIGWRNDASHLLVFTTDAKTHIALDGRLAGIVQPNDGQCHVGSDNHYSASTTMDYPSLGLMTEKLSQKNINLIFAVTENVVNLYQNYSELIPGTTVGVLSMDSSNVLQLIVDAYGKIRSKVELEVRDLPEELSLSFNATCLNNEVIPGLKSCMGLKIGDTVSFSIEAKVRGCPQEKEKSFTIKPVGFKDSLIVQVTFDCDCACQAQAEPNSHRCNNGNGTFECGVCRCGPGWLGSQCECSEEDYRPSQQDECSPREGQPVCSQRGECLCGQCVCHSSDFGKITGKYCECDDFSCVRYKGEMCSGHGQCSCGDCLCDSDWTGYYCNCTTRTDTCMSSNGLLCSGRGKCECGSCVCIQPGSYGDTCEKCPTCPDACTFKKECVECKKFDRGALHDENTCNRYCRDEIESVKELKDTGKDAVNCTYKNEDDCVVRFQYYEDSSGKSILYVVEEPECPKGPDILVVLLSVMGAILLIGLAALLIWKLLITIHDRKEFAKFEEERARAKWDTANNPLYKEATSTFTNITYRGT
T2 sequence (P06756 31-992, chain 1 of 2): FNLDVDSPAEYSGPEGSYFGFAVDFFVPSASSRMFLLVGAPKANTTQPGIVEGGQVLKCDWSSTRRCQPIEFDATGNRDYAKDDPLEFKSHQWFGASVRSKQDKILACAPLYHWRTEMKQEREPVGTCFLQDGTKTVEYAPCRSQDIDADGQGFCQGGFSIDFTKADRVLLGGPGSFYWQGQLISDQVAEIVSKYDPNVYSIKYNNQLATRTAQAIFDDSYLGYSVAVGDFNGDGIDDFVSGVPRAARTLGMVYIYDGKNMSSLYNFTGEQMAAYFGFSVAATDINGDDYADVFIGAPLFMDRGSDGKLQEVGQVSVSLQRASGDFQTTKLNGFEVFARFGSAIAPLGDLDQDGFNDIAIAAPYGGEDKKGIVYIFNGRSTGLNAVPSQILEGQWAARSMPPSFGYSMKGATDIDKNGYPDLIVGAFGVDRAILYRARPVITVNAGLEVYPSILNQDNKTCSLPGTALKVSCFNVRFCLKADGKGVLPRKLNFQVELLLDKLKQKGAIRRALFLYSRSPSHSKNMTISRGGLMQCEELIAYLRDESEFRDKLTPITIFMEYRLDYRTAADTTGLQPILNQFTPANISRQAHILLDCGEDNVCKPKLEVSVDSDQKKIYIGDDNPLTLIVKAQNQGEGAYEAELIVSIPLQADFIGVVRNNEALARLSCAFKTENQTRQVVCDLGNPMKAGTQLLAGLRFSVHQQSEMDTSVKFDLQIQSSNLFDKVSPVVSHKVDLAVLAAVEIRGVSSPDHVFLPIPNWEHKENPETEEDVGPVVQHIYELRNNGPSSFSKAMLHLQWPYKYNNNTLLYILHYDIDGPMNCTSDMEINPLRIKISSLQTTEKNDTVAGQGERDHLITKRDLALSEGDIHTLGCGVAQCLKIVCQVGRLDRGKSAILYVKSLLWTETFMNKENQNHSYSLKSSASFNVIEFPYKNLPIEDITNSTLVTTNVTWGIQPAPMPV
T2 sequence (P05106 27-718, chain 2 of 2): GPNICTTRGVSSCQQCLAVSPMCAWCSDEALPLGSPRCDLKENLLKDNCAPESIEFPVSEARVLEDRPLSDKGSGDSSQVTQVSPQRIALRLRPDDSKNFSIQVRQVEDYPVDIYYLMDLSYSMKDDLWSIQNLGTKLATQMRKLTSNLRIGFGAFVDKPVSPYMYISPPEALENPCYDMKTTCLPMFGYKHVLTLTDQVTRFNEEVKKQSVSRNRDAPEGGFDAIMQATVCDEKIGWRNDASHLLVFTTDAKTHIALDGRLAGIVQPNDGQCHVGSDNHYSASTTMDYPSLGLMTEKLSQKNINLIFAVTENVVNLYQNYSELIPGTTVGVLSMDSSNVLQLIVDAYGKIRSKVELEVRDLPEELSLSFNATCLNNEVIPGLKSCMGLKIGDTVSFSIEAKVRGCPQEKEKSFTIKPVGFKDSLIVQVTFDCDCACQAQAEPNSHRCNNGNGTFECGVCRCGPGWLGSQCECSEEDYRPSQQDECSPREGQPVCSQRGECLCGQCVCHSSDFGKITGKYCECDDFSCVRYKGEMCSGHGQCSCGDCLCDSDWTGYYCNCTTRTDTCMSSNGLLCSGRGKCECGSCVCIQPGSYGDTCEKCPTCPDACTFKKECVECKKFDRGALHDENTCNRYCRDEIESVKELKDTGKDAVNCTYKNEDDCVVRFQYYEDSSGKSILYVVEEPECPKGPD

Binder | IC50 [1] | other results
RGDFG (head-to-tail cyclic (homodetic)) [Cyclo(Arg-Gly-Asp-Phe-Gly)] | 400 nM | –
B1 | 8 nM | –
B2 | – | IC50 [2]: 4 µM
cyclo(RGD[dF][Aib′]) (X = non-natural residue Aib) [Cyclo-(Arg-Gly-Asp-DPhe-Aib)] | 20 nM | –
B3 | 2 nM | IC50 [3]: 2.1 nM
B4 | – | IC50 [4]: 24 nM
cyclo(RGD[dF]X) (not fully specified (residue 5); printed as Cyclo-(Arg-Gly-Asp-DPhe-hPro), X = non-natural residue hPro) [Cyclo-(Arg-Gly-Asp-DPhe-hPro)] | 170 nM | –
cyclo(RGD[dF][Ac5c]) (X = non-natural residue Acpa) [Cyclo-(Arg-Gly-Asp-DPhe-Acpa)] | 9 nM | –
B5 | – | IC50 [3]: 120 nM
